Measured values: article PMC2699591
pKd: −log10 of the molar value.

Biological target: GST-LB3-coil2 (Xenopus)
Experiment: biosensor binding studies

pKd: 4.30
Substance: 6His-tagged full-length Nudel (6His-Nudel, 1-345 aa) (natural protein)
